In patent publication US20230416365A1 (Hoffmann-La Roche, published 2023):

B1: CD79b (huMA79b.v28)-CD28 (SA_v15) 1+1 (Molecule F of Example 18; 18F) (bispecific antibody, human IgG1, kappa, L234A L235A)
heavy 1: not shown
light 1: not shown
heavy 2: DIQLTQSPSSLSASVGDRVTITCKASQSVDYEGDSFLNWYQQKPGKAPKLLIYAASNLESGVPSRFSGSGSGTDFTLTISSLQPEDFATYYCQQSNEDPLTFGQGTKVEIKSSASTKGPSVFPLAPSSKSTSGGTAALGCLVKDYFPEPVTVSWNSGALTSGVHTFPAVLQSSGLYSLSSVVTVPSSSLGTQTYICNVNHKPSNTKVDKKVEPKSCDKTHTCPPCPAPEAAGGPSVFLFPPKPKDTLMISRTPEVTCVVVDVSHEDPEVKFNWYVDGVEVHNAKTKPREEQYNSTYRVVSVLTVLHQDWLNGKEYKCKVSNKALGAPIEKTISKAKGQPREPQVCTLPPSRDELTKNQVSLSCAVKGFYPSDIAVEWESNGQPENNYKTTPPVLDSDGSFFLVSKLTVDKSRWQQGNVFSCSVMHEALHNHYTQKSLSLSP
light 2: EVQLVESGGGLVQPGGSLRLSCAASGYTFSSYWIEWVRQAPGKGLEWIGEILPGGGDTNYNEIFKGRATFSADTSKNTAYLQMNSLRAEDTAVYYCTRRVPIRLDYWGQGTLVTVSSASVAAPSVFIFPPSDEQLKSGTASVVCLLNNFYPREAKVQWKVDNALQSGNSQESVTEQDSKDSTYSLSSTLTLSKADYEKHKVYACEVTHQGLSSPVTKSFNRGEC
notes: huIgG1 PG-LALA CrossFab; also called P1AE9039; CD79b-CD28
B2: CD19 (8B8-2B11)-CD28 (SA_v8) 1+1 (Molecule 18C) (bispecific antibody, human IgG1, kappa, L234A L235A)
heavy 1: not shown
light 1: not shown
heavy 2: DIVMTQTPLSLSVTPGQPASISCKSSQSLETSTGTTYLNWYLQKPGQSPQLLIYRVSKRFSGVPDRFSGSGSGTDFTLKISRVEAEDVGVYYCLQLLEDPYTFGQGTKLEIKSSASTKGPSVFPLAPSSKSTSGGTAALGCLVKDYFPEPVTVSWNSGALTSGVHTFPAVLQSSGLYSLSSVVTVPSSSLGTQTYICNVNHKPSNTKVDKKVEPKSCDKTHTCPPCPAPEAAGGPSVFLFPPKPKDTLMISRTPEVTCVVVDVSHEDPEVKFNWYVDGVEVHNAKTKPREEQYNSTYRVVSVLTVLHQDWLNGKEYKCKVSNKALGAPIEKTISKAKGQPREPQVCTLPPSRDELTKNQVSLSCAVKGFYPSDIAVEWESNGQPENNYKTTPPVLDSDGSFFLVSKLTVDKSRWQQGNVFSCSVMHEALHNHYTQKSLSLSP
light 2: QVQLVQSGAEVKKPGASVKVSCKASGYTFTDYIMHWVRQAPGQGLEWMGYINPYNDGSKYTEKFQGRVTMTSDTSISTAYMELSRLRSDDTAVYYCARGTYYYGPQLFDYWGQGTTVTVSSASVAAPSVFIFPPSDEQLKSGTASVVCLLNNFYPREAKVQWKVDNALQSGNSQESVTEQDSKDSTYSLSSTLTLSKADYEKHKVYACEVTHQGLSSPVTKSFNRGEC
notes: huIgG1 PG-LALA CrossFab; also called P1AF0175; CD19-CD28 v8
B3: CD19 (8B8-2B11)-CD28 (SA_v11) 1+1 (Molecule D of Example 18; 18D) (bispecific antibody, human IgG1, kappa, L234A L235A)
heavy 1: not shown
light 1: not shown
heavy 2: B2 heavy 2
light 2: B2 light 2
notes: huIgG1 PG-LALA CrossFab; also called P1AF0377; CD19-CD28 v11
B4: CD19 (8B8-2B11)-CD28 (SA_v15) 1+1 (Molecule 18B) (bispecific antibody, human IgG1, kappa, L234A L235A)
heavy 1: not shown
light 1: not shown
heavy 2: B2 heavy 2
light 2: B2 light 2
notes: huIgG1 PG-LALA CrossFab; also called P1AE9040; CD19-CD28 v15
B5: CD19 (8B8-2B11)-CD28 (SA_v27) 1+1 (Molecule E of Example 18; 18E) (bispecific antibody, human IgG1, kappa, L234A L235A)
heavy 1: not shown
light 1: not shown
heavy 2: B2 heavy 2
light 2: B2 light 2
notes: huIgG1 PG-LALA CrossFab; also called P1AF0378; CD19-CD28 v27
B6: CD19 (8B8-2B11)-CD28 (SA_v29) 1+1 (Molecule 18A) (bispecific antibody, human IgG1, kappa, L234A L235A)
heavy 1: not shown
light 1: not shown
heavy 2: B2 heavy 2
light 2: B2 light 2
notes: huIgG1 PG-LALA CrossFab; also called P1AE8002; CD19-CD28 v29

What was measured:
[1] = target: T1, recombinant CD79b-His (Sinobiological #29750-H08H) (UniProt P40259 29-159); assay: SPR, Biacore T200, CD79b-His captured by anti-penta-His on CM5, bispecific as analyte
T1 construct: bought; whole entry named, limits unknown; also called soluble recombinant CD79b-His
T1 sequence (looked up): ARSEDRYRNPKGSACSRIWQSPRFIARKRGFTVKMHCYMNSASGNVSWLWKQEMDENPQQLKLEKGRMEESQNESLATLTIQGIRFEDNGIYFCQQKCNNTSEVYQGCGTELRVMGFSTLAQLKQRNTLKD

[2] = target: T2, human CD28 on CHO cells (parental cell line CHO-k1 ATCC #CCL-61, modified to stably overexpress human CD28) (human, UniProt P10747 19-220); assay: flow cytometry on CHOk1-CD28 cells
T2 construct: also called hu CD28; CHO-hCD28

[3] = target: T3, human CD19 on Nalm6 B cells (human, UniProt P15391 20-556); assay: flow cytometry on Nalm6 B cells
T3 sequence: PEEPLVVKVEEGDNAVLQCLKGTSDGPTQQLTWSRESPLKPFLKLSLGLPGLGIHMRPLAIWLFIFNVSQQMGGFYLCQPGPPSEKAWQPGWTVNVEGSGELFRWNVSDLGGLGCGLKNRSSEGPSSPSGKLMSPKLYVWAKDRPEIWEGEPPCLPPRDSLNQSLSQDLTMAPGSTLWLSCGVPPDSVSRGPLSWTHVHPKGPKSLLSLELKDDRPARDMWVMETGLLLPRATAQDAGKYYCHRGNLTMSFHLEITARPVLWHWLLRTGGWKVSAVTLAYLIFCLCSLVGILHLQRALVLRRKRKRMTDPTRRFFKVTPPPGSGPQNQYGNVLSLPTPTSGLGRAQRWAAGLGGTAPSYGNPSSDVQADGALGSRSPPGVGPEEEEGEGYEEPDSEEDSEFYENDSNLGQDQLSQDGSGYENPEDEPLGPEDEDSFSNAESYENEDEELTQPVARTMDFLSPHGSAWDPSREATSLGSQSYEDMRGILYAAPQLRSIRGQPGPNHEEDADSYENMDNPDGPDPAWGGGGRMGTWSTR

Row | Binder | Kd [1] | koff [1] | kon [1] | EC50 [2] | EC50 [3]
1 | B1 | 76 nM | 0.0195 s⁻¹ | 257000 M⁻¹ s⁻¹ | – | –
2 | B2 | – | – | – | 232 nM | 0.232 nM
3 | B3 | – | – | – | 150 nM | 0.363 nM
4 | B4 | – | – | – | 15.6 nM | 0.416 nM
5 | B5 | – | – | – | 10.8 nM | 0.368 nM
6 | B6 | – | – | – | 6.65 nM | 0.274 nM
